Assay results taken from publication PMC11847324, “A communication hub for phosphoregulation of kinetochore-microtubule attachment” (Current biology : CB, 2024).
No end group written: not given here. *: point of attachment. BODIPYFLEthylmaleimide = Cc1cc(C)n2c1C=C1C=CC(CCC(=O)NCCN3C(=O)CC(*)C3=O)=[N+]1[B-]2(F)F

Columns and labels:
[1] = target: Bodipy-FL Mps1(137–171) (S. cerevisiae); assay: fluorescence polarisation; direct titration: 2-fold serial dilutions of Ndc80c^dwarf (from 860 uM stock) added to 20 nM (final) Bodipy-FL peptide; 20 mM Hepes pH 7.2, 150 mM NaCl, 2 mM TCEP; 25 °C; triplicate
[2] = system: Ndc80c^dwarf; assay: Fluorescence polarization competition, reporter Bodipy-FL Mps1(137–171); type: binding, S. cerevisiae; conditions: direct titration (Figure 3A) and competition with Bodipy-FL Mps1(137–171) (Figure 3B)
Source text: We measured by fluorescence polarization the affinity of Ndc80^dwarf, a shortened version of Ndc80c[51], for a peptide comprising Mps1 residues 137–171, plus a C-terminal cysteine for labeling. We labeled the peptide with the Bodipy fluorophore and determined fluorescence anisotropy as a function of Ndc80c^dwarf concentration (Figure 3A). We then used unlabeled wild-type and mutant peptides in a competition format, at a fixed Ndc80c^dwarf concentration (Figures 3B,C). The mutant peptides corresponded to mutations characterized in one of the accompanying papers. […] Mutating either the basic residues or the hydrophobic residues in the first part of the consensus motif or the conserved arginine at the end of the second part lowered affinity (raised the Ki) by roughly two logs; mutating both the final arginine and the hydrophobic residues eliminated any detectable competition.
Figure 3. Fluorescence polarization measurements of Ndc80c^dwarf binding peptides from the N-terminal extensions of Mps1 and Ipl1. (A) Polarization of fluorescence from 20 nM Bodipy-FL Mps1(137–171) (Mps1 residues 137–171 plus a C-terminal cysteine modified with Bodipy-FL -- see Methods) and Bodipy-FL Ipl1 (26–39;45–59) as a function of Ndc80c^dwarf concentration. (B) Competition binding experiment: unlabeled competitor peptides (see figure annotation) were added in twofold serial dilutions to Bodipy-FL Mps1(137–171) and Ndc80c^dwarf at final concentrations of 20 nM and 500 nM respectively. Loss of polarization indicates displacement of bound Bodipy-FL Mps1(137–171) by the competitor. (C) As in (B), with competitor Mps1(137–171) peptides containing mutations that reduce affinity for Ndc80c[40]. (D) Polarization of fluorescence from 20 nM Bodipy-FL Mps1(137–171) as a function of the concentration of Ndc80c^dwarf bearing mutations in Nuf2 that interfere with its Mps1 interaction in cells. (E) As in (B), but with 20 nM Bodipy-FL Ipl1 (26–39;45–59) as the fluorescent reporter and 27μM Ndc80c^dwarf. […] For the Ipl1 peptide, the second copy of the motif, not used for the fluorescence polarization experiments, is shown in the bottom line.
Mps1 (137–171), Ipl1 (26–39;45–59), and Dam1 (254–270;290–305) peptides with added C-terminal cysteines, were synthesized by the Tufts University Core Facility. […] Fluorescence polarization was measured at 25°C with an Envision plate reader (Perkin Elmer) equipped with a filter set optimized for fluorescence polarization of FITC, which has the same absorption and emission spectra as those of Bodipy FL. […] Fluorescence polarization was measured in triplicate. […] An equal volume of a buffer-matched solution containing 40 nM Bodipy-FL labelled peptide and 1 μM Ndc80c^dwarf was added to each of the dilutions, and fluorescence polarization was measured in triplicate. […]

[3] = target: T1, Ipl1 (Saccharomyces cerevisiae (strain ATCC …, UniProt P38991)); assay: FP direct, Bodipy peptide, Ndc80c dwarf
T1 chain: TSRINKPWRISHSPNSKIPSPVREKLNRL

[4] = target: T2, Mps1 (Saccharomyces cerevisiae (strain ATCC …, UniProt P54199)); assay: FP direct, Bodipy peptide, Ndc80c dwarf
T2 chain: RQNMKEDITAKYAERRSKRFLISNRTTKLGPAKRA

[5] = target: T3, Ndc80c^dwarf (S. cerevisiae, UniProt P40460 1-691; Q04477 1-213; P40014 1-221); assay: FP
T3 chain 1: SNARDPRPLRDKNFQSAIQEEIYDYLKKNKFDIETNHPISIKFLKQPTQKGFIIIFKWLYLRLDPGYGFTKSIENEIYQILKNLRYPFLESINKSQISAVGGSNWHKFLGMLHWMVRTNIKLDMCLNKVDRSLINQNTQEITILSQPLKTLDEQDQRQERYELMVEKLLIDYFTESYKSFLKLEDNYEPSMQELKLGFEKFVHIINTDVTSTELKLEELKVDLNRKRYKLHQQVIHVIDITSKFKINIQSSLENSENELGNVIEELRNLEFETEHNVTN
T3 chain 2: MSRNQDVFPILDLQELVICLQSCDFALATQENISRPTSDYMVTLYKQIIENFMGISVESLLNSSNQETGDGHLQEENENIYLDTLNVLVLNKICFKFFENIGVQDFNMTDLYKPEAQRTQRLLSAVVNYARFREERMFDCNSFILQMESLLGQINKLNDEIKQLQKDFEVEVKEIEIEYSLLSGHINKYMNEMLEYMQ
T3 chain 3: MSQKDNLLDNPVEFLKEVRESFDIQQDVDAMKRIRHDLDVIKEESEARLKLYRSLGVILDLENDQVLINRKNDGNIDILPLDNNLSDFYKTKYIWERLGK
T3 chain 4: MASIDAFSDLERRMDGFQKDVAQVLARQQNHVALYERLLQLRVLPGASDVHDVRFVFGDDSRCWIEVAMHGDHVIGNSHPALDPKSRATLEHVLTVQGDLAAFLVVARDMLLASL

[6] = target: T4, Ndc80c^dwarf, P40460;Q04477;P40014; assay: fluorescence polarization competition; conditions: chain shown with the change; point at the highest competitor concentration (about 1e3 µM); 20 nM Bodipy-FL Mps1(137–171), 500 nM Ndc80c^dwarf; lower polarization = more displacement of the …; parent: est. 41; read off a plot
T4 chain 1: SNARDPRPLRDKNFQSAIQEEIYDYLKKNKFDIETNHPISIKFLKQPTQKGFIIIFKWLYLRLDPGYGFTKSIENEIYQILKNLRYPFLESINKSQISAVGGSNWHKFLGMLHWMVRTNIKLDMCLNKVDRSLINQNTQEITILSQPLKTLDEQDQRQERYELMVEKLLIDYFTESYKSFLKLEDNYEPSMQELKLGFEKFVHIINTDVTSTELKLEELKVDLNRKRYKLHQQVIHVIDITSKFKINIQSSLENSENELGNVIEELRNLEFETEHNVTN
T4 chain 2: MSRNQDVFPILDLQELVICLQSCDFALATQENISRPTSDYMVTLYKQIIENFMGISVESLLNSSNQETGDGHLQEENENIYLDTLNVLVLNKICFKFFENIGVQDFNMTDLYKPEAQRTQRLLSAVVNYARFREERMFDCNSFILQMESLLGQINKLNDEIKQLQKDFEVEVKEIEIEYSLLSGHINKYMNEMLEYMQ
T4 chain 3: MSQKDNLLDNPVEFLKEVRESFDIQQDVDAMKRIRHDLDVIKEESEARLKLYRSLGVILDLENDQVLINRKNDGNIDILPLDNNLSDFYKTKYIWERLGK
T4 chain 4: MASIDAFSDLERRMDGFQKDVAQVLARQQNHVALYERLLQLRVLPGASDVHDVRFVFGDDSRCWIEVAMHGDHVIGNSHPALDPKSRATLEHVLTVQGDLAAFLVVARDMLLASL

[7] = target: T3, Ndc80c^dwarf; assay: fluorescence polarisation; competition: 2-fold serial dilutions of unlabeled peptide (2 mM stock) mixed with an equal volume giving 20 nM Bodipy-FL Mps1(137–171) and 500 nM Ndc80c^dwarf; 20 mM Tris pH 7.2, 100 mM NaCl, 2 mM TCEP; 25 °C; triplicate
[8] = target: T5, Bodipy-FL Mps1(137–171); assay: fluorescence polarization; conditions: chain shown with the change; 20 nM Bodipy-FL Mps1(137–171); Ndc80c^dwarf mutant titrated
T5 chain: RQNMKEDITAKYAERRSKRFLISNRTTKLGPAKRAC

For “Ndc80c^dwarf bearing the Nuf2 F8A P9A mutations (from UniProt P40460 1-691; Q04477 1-213; P40014 1-221) (complex)”, the loss of affinity against wild-type Ndc80c^dwarf (logs) [1] was 2 logs.

Work on “Ndc80c^dwarf bearing the Nuf2 N128A mutation (from UniProt P40460 1-691; Q04477 1-213; P40014 1-221) (complex)” yielded a loss of affinity against wild-type Ndc80c^dwarf (logs) [1] of 2 logs.

In the case of “RRKSILHTIRNSIASGARISLGSGAARVVNGPVTC [Dam1 (254–270;290–305)]”, the “relative affinity of peptides for Ndc80c^dwarf (comparison in words)” value [2] is reported as “nearly the same”.

With “TSRINKPWRISHSPNSKIPSPVREKLNRLC [Ipl1 (26–39;45–59)]” the “relative affinity of peptides for Ndc80c^dwarf (comparison in words)” value [2] was “bound more weakly than those from Dam1 and Mps1”.

B1: Ndc80-Nuf2 (protein)
chain 1: MSRNQDVFPILDLQELVICLQSCDFALATQENISRPTSDYMVTLYKQIIENFMGISVESLLNSSNQETGDGHLQEENENIYLDTLNVLVLNKICFKFFENIGVQDFNMTDLYKPEAQRTQRLLSAVVNYARFREERMFDCNSFILQMESLLGQ
chain 2: RDPRPLRDKNFQSAIQEEIYDYLKKNKFDIETNHPISIKFLKQPTQKGFIIIFKWLYLRLDPGYGFTKSIENEIYQILKNLRYPFLESINKSQISAVGGSNWHKFLGMLHWMVRTNIKLDMCLNKVDRSLINQNTQEITILSQPLKTLDEQDQRQERYELMVEKLLIDYFTESYKSFLKLEDNYEPSMQELKLGFEKFVHIINTD
In the case of B1, the Kd [3] is reported as 18.8 µM and the Kd [4] is reported as 0.28 µM.

With RQNMKEDITAKYAERRSKRFLISNRTTKLGPAKRAC(BODIPYFLEthylmaleimide) [Bodipy-FL Mps1(137–171)] the Kd [5] was 0.28 µM.

RQNMKEDITAKYAERRSKRDAISNRTTKLGPAKSAC [Mps1 (137–171) peptide, unlabeled F156D; L157A; R170S] showed a response [6] of 76 mP.

In the case of RQNMKEDITAKYAERRSKRFLISNRTTKLGPAKSAC [Mps1 R170S peptide (137–171)], the rise of Ki against the wild-type Mps1 peptide (logs) [7] is reported as 2 logs.

RQNMKEDITAKYAERRSKRDAISNRTTKLGPAKRAC [Mps1 F156D L157A peptide (137–171)] gave a rise of Ki against the wild-type Mps1 peptide (logs) [7] of 2 logs.

B2: Ndc80c^dwarf, P40460;Q04477;P40014 Nuf2:N128A (protein)
chain 1: SNARDPRPLRDKNFQSAIQEEIYDYLKKNKFDIETNHPISIKFLKQPTQKGFIIIFKWLYLRLDPGYGFTKSIENEIYQILKNLRYPFLESINKSQISAVGGSNWHKFLGMLHWMVRTNIKLDMCLNKVDRSLINQNTQEITILSQPLKTLDEQDQRQERYELMVEKLLIDYFTESYKSFLKLEDNYEPSMQELKLGFEKFVHIINTDVTSTELKLEELKVDLNRKRYKLHQQVIHVIDITSKFKINIQSSLENSENELGNVIEELRNLEFETEHNVTN
chain 2: MSRNQDVFPILDLQELVICLQSCDFALATQENISRPTSDYMVTLYKQIIENFMGISVESLLNSSNQETGDGHLQEENENIYLDTLNVLVLNKICFKFFENIGVQDFNMTDLYKPEAQRTQRLLSAVVAYARFREERMFDCNSFILQMESLLGQINKLNDEIKQLQKDFEVEVKEIEIEYSLLSGHINKYMNEMLEYMQ
chain 3: MSQKDNLLDNPVEFLKEVRESFDIQQDVDAMKRIRHDLDVIKEESEARLKLYRSLGVILDLENDQVLINRKNDGNIDILPLDNNLSDFYKTKYIWERLGK
chain 4: MASIDAFSDLERRMDGFQKDVAQVLARQQNHVALYERLLQLRVLPGASDVHDVRFVFGDDSRCWIEVAMHGDHVIGNSHPALDPKSRATLEHVLTVQGDLAAFLVVARDMLLASL
Molecule B2 has a Kd [8] of 7.4 µM.

B3: Ndc80c^dwarf, P40460;Q04477;P40014 Nuf2:F8A; Nuf2:P9A (protein)
chain 1: SNARDPRPLRDKNFQSAIQEEIYDYLKKNKFDIETNHPISIKFLKQPTQKGFIIIFKWLYLRLDPGYGFTKSIENEIYQILKNLRYPFLESINKSQISAVGGSNWHKFLGMLHWMVRTNIKLDMCLNKVDRSLINQNTQEITILSQPLKTLDEQDQRQERYELMVEKLLIDYFTESYKSFLKLEDNYEPSMQELKLGFEKFVHIINTDVTSTELKLEELKVDLNRKRYKLHQQVIHVIDITSKFKINIQSSLENSENELGNVIEELRNLEFETEHNVTN
chain 2: MSRNQDVAAILDLQELVICLQSCDFALATQENISRPTSDYMVTLYKQIIENFMGISVESLLNSSNQETGDGHLQEENENIYLDTLNVLVLNKICFKFFENIGVQDFNMTDLYKPEAQRTQRLLSAVVNYARFREERMFDCNSFILQMESLLGQINKLNDEIKQLQKDFEVEVKEIEIEYSLLSGHINKYMNEMLEYMQ
chain 3: MSQKDNLLDNPVEFLKEVRESFDIQQDVDAMKRIRHDLDVIKEESEARLKLYRSLGVILDLENDQVLINRKNDGNIDILPLDNNLSDFYKTKYIWERLGK
chain 4: MASIDAFSDLERRMDGFQKDVAQVLARQQNHVALYERLLQLRVLPGASDVHDVRFVFGDDSRCWIEVAMHGDHVIGNSHPALDPKSRATLEHVLTVQGDLAAFLVVARDMLLASL
In the case of B3, the Kd [8] is reported as 12.5 µM.

In the case of RQNMKEDITAKYAEDDSKDFLISNRTTKLGPAKRAC [Mps1 R151D R152D R155D peptide (137–171)], the rise of Ki against the wild-type Mps1 peptide (logs) [7] is reported as 2 logs.
